The target of data set [1] is Cep3Δ (lacks zinc cluster) (Saccharomyces cerevisiae, UniProt P40969 48-608). Briefly: EMSA. (In general: In EMSA bound probe runs differently from free probe, usually more slowly.)
Data set [2] has as its target T1, Cep3 (Cep3 1-608, full-length) (Saccharomyces cerevisiae, UniProt P40969 1-608). Briefly: EMSA.
The target of data set [3] is T1, Cep3 (Cep3 1-608, full-length). The data set can be described thus: competition.

We go through four molecules from publication PMC2246632.

T1 sequence (P40969 whole entry): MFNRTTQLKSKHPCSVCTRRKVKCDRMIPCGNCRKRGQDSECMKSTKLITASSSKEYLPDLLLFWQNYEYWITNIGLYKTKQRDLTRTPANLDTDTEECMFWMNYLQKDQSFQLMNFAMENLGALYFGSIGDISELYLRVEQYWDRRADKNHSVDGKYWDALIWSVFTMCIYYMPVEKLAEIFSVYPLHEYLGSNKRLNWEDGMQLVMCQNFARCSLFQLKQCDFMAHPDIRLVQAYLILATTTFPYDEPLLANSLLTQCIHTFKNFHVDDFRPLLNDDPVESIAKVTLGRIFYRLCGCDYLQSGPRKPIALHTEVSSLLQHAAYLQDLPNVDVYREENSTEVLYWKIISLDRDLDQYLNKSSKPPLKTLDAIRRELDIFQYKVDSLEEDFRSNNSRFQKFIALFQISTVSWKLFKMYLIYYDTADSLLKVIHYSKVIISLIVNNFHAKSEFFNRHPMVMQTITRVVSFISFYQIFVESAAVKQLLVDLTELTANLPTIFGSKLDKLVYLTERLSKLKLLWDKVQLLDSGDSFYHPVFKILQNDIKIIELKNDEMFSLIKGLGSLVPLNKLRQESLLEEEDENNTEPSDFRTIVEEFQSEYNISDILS
Cep3Δ (lacks zinc cluster), sequence (P40969 48-608, stated change not applied): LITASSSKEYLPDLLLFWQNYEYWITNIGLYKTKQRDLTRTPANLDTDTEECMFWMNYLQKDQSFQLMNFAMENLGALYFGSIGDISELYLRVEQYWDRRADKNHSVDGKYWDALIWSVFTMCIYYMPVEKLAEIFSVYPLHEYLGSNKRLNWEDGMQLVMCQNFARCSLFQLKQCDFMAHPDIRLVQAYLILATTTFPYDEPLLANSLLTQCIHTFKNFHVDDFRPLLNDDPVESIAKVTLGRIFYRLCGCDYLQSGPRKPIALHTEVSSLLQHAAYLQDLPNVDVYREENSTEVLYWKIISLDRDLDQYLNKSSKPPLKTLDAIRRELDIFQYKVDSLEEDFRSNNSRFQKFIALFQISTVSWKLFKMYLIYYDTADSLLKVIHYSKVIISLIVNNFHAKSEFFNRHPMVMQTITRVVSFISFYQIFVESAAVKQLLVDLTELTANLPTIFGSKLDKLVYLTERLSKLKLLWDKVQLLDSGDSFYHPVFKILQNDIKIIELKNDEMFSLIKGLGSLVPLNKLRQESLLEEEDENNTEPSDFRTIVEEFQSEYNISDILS

B1: native CDEIII probe (dsDNA)
DNA 1: AAATATTAGTGTATTTGATTTCCGAAAGTTAAA
DNA 2: TTTAACTTTCGGAAATCAAATACACTAATATTT
Turning to B1, the binding result in data set [1] is recorded as “no binding”; in data set [2] it was “binds”.

B2: site 1 mutant (dsDNA)
DNA 1: AAATATTAGTGTATTTGATTTGATAAAGTTAAA
DNA 2: TTTAACTTTATCAAATCAAATACACTAATATTT
For B2, the binding result in data set [3] is reported as “no binding”.

B3: site 2 mutant (dsDNA)
DNA 1: AAATATTAGAACTTTTGATTTCCGAAAGTTAAA
DNA 2: TTTAACTTTCGGAAATCAAAAGTTCTAATATTT
For B3, in data set [3], the binding result is “binds”.

B4: native CDEIII competitor (dsDNA)
DNA 1: AAATATTAGTGTATTTGATTTCCGAAAGTTAAA
DNA 2: TTTAACTTTCGGAAATCAAATACACTAATATTT
As for B4, the binding result in data set [3] is listed as “binds”.
